Test results: US20110312891A1, “ENAMEL MATRIX DERIVATIVE FRACTION C” (Straumann Holding AG, priority 2008, published 2011)

B1: rhAmel: recombinant human amelogenin over-expressed in Escherichia Coli (protein, UniProt Q99217 17-191, looked up)
Amelogenin, X isoform: MPLPPHPGHPGYINFSYEVLTPLKWYQSIRPPYPSYGYEPMGGWLHHQIIPVLSQQHPPTHTLQPHHHIPVVPAQQPVIPQQPMMPVPGQHSMTPIQHHQPNLPPPAQQPYQPQPVQPQPHQPMQPQPPVHPMQPLPPQPPLPPMFPMQPLPPMLPDLTLEAWPSTDKTKREEVD
B2: PTH: PTH peptides compared with EMD on primary osteoblasts (protein, UniProt P01270 32-115, looked up)
Parathyroid hormone: SVSEIQLMHNLGKHLNSMERVEWLRKKLQDVHNFVALGAPLAPRDAGSQRPRKKEDNVLVESHEKSLGEADKADVNVLTKAKSQ
modifications: Parathyroid hormone
notes: PTH peptides compared with EMD on primary osteoblasts

Columns and labels:
[1] = system: osteoblasts; assay: Effect of fraction C, its isoforms and synthetic amelogenin peptides on bone markers in osteoblasts; format: cell-based; settings: for LDH activity in the culture medium: compared with fraction C and the mix of peptides (3113), slightly more toxic effect
Protocol: We have tested synthetic peptides of amelogenin (exon1, 3 and 5) of various lengths.
Fraction C, having a molecular weight of 5250.4 g/mol was used at a final concentration of 5 μg/ml (0.9 μmol/L). The peptides were used in a molar concentration similar to fraction C. WBRA001 enhanced osteocalcin and CD44 expression and secretion similar to fraction C, the smaller peptides had no effect on the bone markers in osteoblasts. 5 kDa amelogenins, isolated from EMD batch 3113 was identified to contain both; C1RP or C2RP (1-43 and 1-45 TRAP), whereas the fraction C isolated from EMD batch 9121 contains not only C1RP and C2R (1-43 and 1-45 TRAP), but 2 further, unidentified minor peaks. The effect of the different isoforms on expression of bone markers was tested on osteoblasts.

[2] = system: MG63 cells; assay: WST-1 cell proliferation and viability assay; format: cell-based, human; settings: 1 μg/mL; after 7 days; compared to the negative control
Protocol: Minimum Essential Medium Eagle (MEM)+10% Fetal calf serum +1% Penicilin-Streptomycin (×100)+1% Non Essential Amino Acid Solution (×100)+1% L-Glutamine (200 mM) Seeding density MG63 cells in passage 4 were seeded with a density of 10,000 cells/cm2 on 96 wells culture plates. Sampling was performed after 24 hours and 7 days in vitro.
Furthermore, the proliferation reagent WST-1 test was performed to assess cell proliferation and viability. WST-1 solution was added in a final solution of 1:10 to the monolayer culture and cells were incubated at 37° C. for a further 1 hour. The absorbance of the supernatants was measured spectrophotometrically using VersaMax micro plate reader (Molecular Devices, California, USA) at 420 nm-480 nm with a reference wavelength of 600 nm. Results are reported as optical density (OD).

[3] = system: MG63 human osteoblast-like cells; assay: Osteoblast differentiation in confluent MG63 cultures treated for 24 hours (DNA, ALP, osteocalcin, OPG, VEGF, FGF-2); format: cell-based
Protocol: Methods: Confluent cultures of MG63 human osteoblast-like cells and normal human osteoblasts were treated with or without EMD, recombinant human amelogenin (rhAmel), Fraction A (0.01-100 μg/ml) or Fraction C (0.1-250 μg/ml) for 24 hours. Effects on DNA content and alkaline phosphatase specific activity (ALP), and osteocalcin (OCN), osteoprotegerin (OPG), vascular endothelial growth factor A (VEGF-A) and fibroblast growth factor-2 (FGF-2) levels in the conditioned media were determined.
MG63 osteoblast-like cells, originally isolated from a human osteosarcoma, were obtained from the American Type Culture Collection (Rockville, Md.). […]
MG63 Cells were cultured in Dulbecco's modified Eagle medium (DMEM) containing 10% fetal bovine serum (FBS) and 1% penicillin and streptomycin at 37° C. in an atmosphere of 5% CO2 and 100% humidity. […] The levels of osteocalcin in the conditioned media were measured using a commercially available radioimmunoassay kit (Human Osteocalcin RIA Kit, Biomedical Technologies, Stoughton, Mass.) and normalized to DNA content. […] Osteoprotegerin was measured using enzyme-linked immunosorbent assay (ELISA) kit (DY805 Osteoprotegerin DuoSet, R&D Systems, Minneapolis, Minn.). VEGF was assesseds using an ELISA kit (RnD Systems). […] The absorbance of the samples was read using a microplate reader and the results analyzed using a standard curve. […]

[4] = system: primary osteoblasts; assay: Affymetrix gene chip analysis of primary osteoblasts, EMD versus PTH; format: cell-based, human; settings: 24 h after stimulation; cells of two donors
Protocol: Commercially available primary human osteoblasts from both femur and tibia of different donors (NHOst cell system; Cambrex, Walkersville, Md., USA) were grown in osteoblast growth media (OGM, Cambrex). Cultured osteoblasts were exposed to hydrocortisone hemisuccinate (200 nM) and h-glycerophosphate (10 mM) (Cambrex) in ambient medium to facilitate mineralization. The phenotype of cells was characterized based on the expression levels of alkaline phosphatase (ALP), collagen type 1, osteocalcin, and CD44 (late differentiation marker), and formation of mineralization nodules.
Primary osteoblasts were cultured in T75 culture flasks and cultured after treatment for 24 h, 72 h or 7d respectively and lysed in 7 ml Trizol solution (Gibco, USA). Trizol lysates were kept at −70° C. until RNA isolation according to the manufacturer's protocols and further processing (Dep. of Medical Biochemistry, Oslo University, Norway). Double stranded cDNA and biotin labeled cRNA probes were made from 5 μg total RNA using the Superscript Choice system (Invitrogen) and the Enzo Bioarray respectively. Procedures were according to recommendations from Affymetrix. […]
To compare the effects of PTH peptides and EMD on primary osteoblasts, cells of two donors were treated synchronously and expression patterns were analysed by affymetrix gene chip analysis. […]

Row | Molecule | LDH activity in the culture medium [1] | cell viability and proliferation (WST-1) [2] | also measured
1 | C2RP: Peak 2 of Frac C; SEQ.ID.NO: 2, 45AA form MPLPPHPGHPGYINFSYEVLTPLKWYQNMIRHP-YTSYGYEPMGGW (MPLPPHPGHPGYINFXYEVLTPLKWYQNMIRHPYTSYGYEPMGGW; MOD_RES (16)..(16) Ser or Glu, wherein Ser is optionally phosphorylated; listed as Sus scrofa) [Fraction C2RP] | higher LDH activity | clear effect | 
2 | C1RP: Peak 1 of Frac C; SEQ.ID.NO: 1, 43AA form MPLPPHPGHPGYINFSYEVLTPLKWYQNMIRHP-YTSYGYEPMG (MPLPPHPGHPGYINFXYEVLTPLKWYQNMIRHPYTSYGYEPMG; MOD_RES (16)..(16) Ser or Glu, wherein Ser is optionally phosphorylated; listed as Sus scrofa) [Fraction C1RP] | higher LDH activity | clear effect | 
3 | MPLPP HPGHPGYINFSYEVLTPLKWYQSIRPP-OH [WBRA001] |  |  | osteocalcin and CD44 expression and secretion ([1]; molar concentration similar to fraction C, 5 μg/ml (0.9 μmol/L)): enhanced
4 | B1 |  |  | concentration of maximal increases in osteocalcin ([3]; FIG. 4): 1 µg/mL; osteocalcin production (dose response) ([3]; FIG. 4, N=6 cultures per variable, p<0.05 v. control): biphasic increase
5 | B2 |  |  | genes more than 2-fold changed in the same direction with both EMD and PTH from non-treated controls [4]: 254 genes
